# Laboratory results from US20250019439A1 (Adimab, published 2025).
# Key:
# [1] = biological target: T1, ADI-22523 Fab; assay: BLI; tip anti-ID IgG, solution ADI-22523 Fab
# T1 construct: anti-CD3 Fab by papain digestion of the IgG
# Summary of the method: (§1)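 Bio-layer interferometry with anti-ID IgG loaded on AHC tips. KD (koff/kon) from 1:1 binding model fit; avid format.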
# [2] = biological target: T2, ADI-76360; assay: SPR Carterra avidity, yeast anti-ID
# T2 construct: anti-CD3 antibody made in CHO cells, captured by anti-human Fc
# T2 sequence (VH, as listed by the source, chain 1 of 2): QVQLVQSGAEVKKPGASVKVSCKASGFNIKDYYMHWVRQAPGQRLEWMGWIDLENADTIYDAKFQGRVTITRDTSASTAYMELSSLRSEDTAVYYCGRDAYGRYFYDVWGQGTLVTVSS
# T2 sequence (VL, as listed by the source, chain 2 of 2): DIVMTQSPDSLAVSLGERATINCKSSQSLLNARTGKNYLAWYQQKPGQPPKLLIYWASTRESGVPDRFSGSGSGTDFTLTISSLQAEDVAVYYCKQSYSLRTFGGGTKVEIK
# Summary of the method: (§2)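 Measured at 25° C in HBSTE running buffer on a Carterra LSA; anti-CD3 antibodies (100 nM) were captured for 5 min on an amine-coupled goat anti-human Fc HC30M chip. Anti-idiotype dissociation was followed for 300s, and double-referenced sensorgrams were fitted to a 1:1 binding model.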
# [3] = biological target: T3, ADI-76359; assay: SPR Carterra avidity, yeast anti-ID
# T3 construct: anti-CD3 antibody made in CHO cells, captured by anti-human Fc
# T3 sequence (VH, as listed by the source, chain 1 of 2): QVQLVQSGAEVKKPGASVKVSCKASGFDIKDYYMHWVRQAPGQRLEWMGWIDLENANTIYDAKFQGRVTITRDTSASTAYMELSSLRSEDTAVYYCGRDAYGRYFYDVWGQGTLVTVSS
# Summary of the method: as §2
# [4] = biological target: T4, ADI-26919; assay: SPR Carterra avidity, yeast anti-ID
# T4 construct: anti-CD3 antibody made in CHO cells, captured by anti-human Fc
# Summary of the method: as §2
# [5] = biological target: T5, ADI-67450; assay: SPR Carterra avidity, yeast anti-ID
# T5 construct: anti-CD3 antibody made in CHO cells, captured by anti-human Fc
# T5 sequence (VH, as listed by the source limits assumed, chain 1 of 2): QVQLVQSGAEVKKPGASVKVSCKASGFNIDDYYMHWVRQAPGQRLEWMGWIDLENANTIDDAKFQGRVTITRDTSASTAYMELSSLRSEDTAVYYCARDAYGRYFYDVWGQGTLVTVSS
# T5 sequence (VL, as listed by the source limits assumed, chain 2 of 2): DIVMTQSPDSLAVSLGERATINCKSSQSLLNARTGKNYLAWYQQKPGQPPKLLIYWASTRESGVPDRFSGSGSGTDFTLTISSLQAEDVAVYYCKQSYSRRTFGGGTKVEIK
# Summary of the method: as §2
# [6] = biological target: T6, ADI-76358; assay: SPR Carterra avidity, yeast anti-ID
# T6 construct: anti-CD3 antibody made in CHO cells, captured by anti-human Fc
# T6 sequence (VH, as listed by the source, chain 1 of 2): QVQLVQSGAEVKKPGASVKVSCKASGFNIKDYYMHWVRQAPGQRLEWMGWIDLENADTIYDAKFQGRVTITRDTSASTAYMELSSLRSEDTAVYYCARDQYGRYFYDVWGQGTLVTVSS
# Summary of the method: as §2
# [7] = biological target: T7, ADI-26912; assay: SPR Carterra avidity, yeast anti-ID
# T7 construct: anti-CD3 antibody made in CHO cells, captured by anti-human Fc
# T7 sequence (VH, as listed by the source, chain 1 of 2): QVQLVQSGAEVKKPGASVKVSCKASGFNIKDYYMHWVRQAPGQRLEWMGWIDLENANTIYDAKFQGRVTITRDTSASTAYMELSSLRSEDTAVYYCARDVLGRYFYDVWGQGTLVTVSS
# Summary of the method: as §2
# [8] = biological target: T8, ADI-26916 IgG; assay: SPR Carterra avidity, yeast anti-ID
# T8 construct: anti-CD3 IgG
# Summary of the method: as §2
# [9] = biological target: T9, ADI-74967; assay: SPR Carterra avidity, yeast anti-ID
# T9 construct: pH-dependent anti-CD3 antibody made in CHO cells
# T9 sequence (VH, as listed by the source, chain 1 of 2): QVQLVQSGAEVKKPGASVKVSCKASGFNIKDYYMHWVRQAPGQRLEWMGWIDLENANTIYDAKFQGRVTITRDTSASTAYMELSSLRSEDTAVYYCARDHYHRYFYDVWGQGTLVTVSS
# T9 sequence (VL, as listed by the source, chain 2 of 2): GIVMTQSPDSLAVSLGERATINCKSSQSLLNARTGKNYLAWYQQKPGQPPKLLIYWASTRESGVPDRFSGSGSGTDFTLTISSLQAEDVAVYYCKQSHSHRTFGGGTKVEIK
# Summary of the method: as §2
# [10] = biological target: T10, ADI-48576; assay: SPR Carterra avidity, yeast anti-ID
# T10 construct: pH-dependent anti-CD3 antibody made in CHO cells
# Summary of the method: as §2
# [11] = biological target: T11, ADI-74965; assay: SPR Carterra avidity, yeast anti-ID
# T11 construct: pH-dependent anti-CD3 antibody made in CHO cells
# T11 sequence (VH, as listed by the source, chain 1 of 2): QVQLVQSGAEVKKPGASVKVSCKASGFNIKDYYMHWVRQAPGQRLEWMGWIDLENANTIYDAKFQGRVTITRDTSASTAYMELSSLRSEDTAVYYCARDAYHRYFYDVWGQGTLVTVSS
# T11 sequence (VL, as listed by the source, chain 2 of 2): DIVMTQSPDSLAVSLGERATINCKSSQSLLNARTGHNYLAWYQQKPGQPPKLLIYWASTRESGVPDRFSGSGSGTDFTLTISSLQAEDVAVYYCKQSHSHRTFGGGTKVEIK
# Summary of the method: as §2
# [12] = biological target: T12, ADI-74966; assay: SPR Carterra avidity, yeast anti-ID
# T12 construct: pH-dependent anti-CD3 antibody made in CHO cells
# T12 sequence (VL, as listed by the source, chain 2 of 2): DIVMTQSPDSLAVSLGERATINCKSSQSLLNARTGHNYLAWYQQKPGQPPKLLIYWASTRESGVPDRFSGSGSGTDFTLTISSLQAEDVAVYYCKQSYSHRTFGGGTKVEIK
# Summary of the method: as §2
# [13] = biological target: T13, ADI-26920 IgG; assay: SPR Carterra avidity, yeast anti-ID
# T13 construct: anti-CD3 IgG
# T13 sequence (VH, as listed by the source limits assumed, chain 1 of 2): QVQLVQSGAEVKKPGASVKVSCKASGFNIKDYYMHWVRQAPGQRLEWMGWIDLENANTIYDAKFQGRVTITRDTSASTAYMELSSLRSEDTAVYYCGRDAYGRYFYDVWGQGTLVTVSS
# Summary of the method: as §2
# [14] = biological target: T14, ADI-26924; assay: SPR Carterra avidity, yeast anti-ID
# T14 construct: anti-CD3 antibody made in CHO cells, captured by anti-human Fc
# T14 sequence (VH, as listed by the source, chain 1 of 2): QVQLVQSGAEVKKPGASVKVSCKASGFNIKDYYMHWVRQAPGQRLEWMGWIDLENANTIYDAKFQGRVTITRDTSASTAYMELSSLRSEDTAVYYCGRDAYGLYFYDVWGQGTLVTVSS
# Summary of the method: as §2
# [15] = biological target: T15, ADI-48592; assay: SPR Carterra avidity, yeast anti-ID
# T15 construct: pH-dependent anti-CD3 antibody made in CHO cells
# T15 sequence (VH, as listed by the source, chain 1 of 2): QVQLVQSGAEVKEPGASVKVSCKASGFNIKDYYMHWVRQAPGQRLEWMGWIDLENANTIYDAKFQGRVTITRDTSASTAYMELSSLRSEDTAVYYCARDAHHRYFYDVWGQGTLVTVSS
# T15 sequence (VL, as listed by the source, chain 2 of 2): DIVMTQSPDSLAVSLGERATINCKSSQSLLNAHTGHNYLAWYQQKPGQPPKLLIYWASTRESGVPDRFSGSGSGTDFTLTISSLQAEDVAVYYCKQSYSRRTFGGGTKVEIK
# Summary of the method: as §2
# [16] = biological target: T16, ADI-26943; assay: SPR Carterra avidity, yeast anti-ID
# T16 construct: anti-CD3 antibody made in CHO cells, captured by anti-human Fc
# Summary of the method: as §2
# [17] = biological target: T17, ADI-76361; assay: SPR Carterra avidity, yeast anti-ID
# T17 construct: anti-CD3 antibody made in CHO cells, captured by anti-human Fc
# Summary of the method: as §2
# [18] = biological target: T18, ADI-26921 IgG; assay: SPR Carterra avidity, yeast anti-ID
# T18 construct: anti-CD3 IgG
# Summary of the method: as §2
# [19] = biological target: T19, ADI-67447; assay: SPR Carterra avidity, yeast anti-ID
# T19 construct: anti-CD3 antibody made in CHO cells, captured by anti-human Fc
# Summary of the method: as §2
# [20] = biological target: T20, ADI-26913 IgG; assay: SPR Carterra avidity, yeast anti-ID
# T20 construct: anti-CD3 IgG
# T20 sequence (VH, as listed by the source limits assumed, chain 1 of 2): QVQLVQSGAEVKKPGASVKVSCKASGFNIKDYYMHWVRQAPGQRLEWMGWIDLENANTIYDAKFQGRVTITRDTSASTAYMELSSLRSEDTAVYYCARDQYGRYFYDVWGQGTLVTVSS
# Summary of the method: as §2
# [21] = biological target: T21, ADI-76362; assay: SPR Carterra avidity, yeast anti-ID
# T21 construct: anti-CD3 antibody made in CHO cells, captured by anti-human Fc
# Summary of the method: as §2
# [22] = biological target: T22, ADI-74968; assay: SPR Carterra avidity, yeast anti-ID
# T22 construct: pH-dependent anti-CD3 antibody made in CHO cells
# Summary of the method: as §2
# [23] = biological target: T23, ADI-76357; assay: SPR Carterra avidity, yeast anti-ID, *koff limit
# T23 construct: anti-CD3 antibody made in CHO cells, captured by anti-human Fc
# Summary of the method: as §2
# [24] = biological target: T24, ADI-26906 IgG; assay: SPR Carterra avidity, yeast anti-ID, *koff limit
# T24 construct: anti-CD3 IgG
# Summary of the method: as §2
# [25] = biological target: T25, ADI-22523 IgG; assay: BLI; tip anti-ID IgG, solution ADI-22523 IgG
# T25 construct: anti-CD3 IgG
# T25 sequence (VH, as listed by the source limits assumed, chain 1 of 2): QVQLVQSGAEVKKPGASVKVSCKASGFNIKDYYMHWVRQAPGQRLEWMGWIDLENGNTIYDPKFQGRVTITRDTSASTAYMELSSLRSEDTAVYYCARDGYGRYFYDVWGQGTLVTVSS
# T25 sequence (VL, as listed by the source limits assumed, chain 2 of 2): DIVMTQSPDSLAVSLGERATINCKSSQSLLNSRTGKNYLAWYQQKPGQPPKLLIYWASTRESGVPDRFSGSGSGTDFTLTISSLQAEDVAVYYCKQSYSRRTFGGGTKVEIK
# Summary of the method: as §1
# [26] = biological target: T26, ADI-70330; assay: SPR Carterra, yeast anti-ID
# T26 construct: anti-CD3 antibody made in CHO cells, captured by anti-human Fc
# Summary of the method: as §2
# [27] = biological target: T27, ADI-70327; assay: SPR Carterra, yeast anti-ID
# T27 construct: anti-CD3 antibody made in CHO cells, captured by anti-human Fc
# Summary of the method: as §2
# [28] = biological target: T28, ADI-48587; assay: SPR Carterra, yeast anti-ID
# T28 construct: pH-dependent anti-CD3 antibody made in CHO cells
# Summary of the method: as §2
# [29] = biological target: T29, ADI-48650; assay: SPR Carterra, yeast anti-ID
# T29 construct: pH-dependent anti-CD3 antibody made in CHO cells
# Summary of the method: as §2
# [30] = biological target: T30, ADI-70326; assay: SPR Carterra, yeast anti-ID
# T30 construct: anti-CD3 antibody made in CHO cells, captured by anti-human Fc
# T30 sequence (VH, as listed by the source limits assumed, chain 1 of 2): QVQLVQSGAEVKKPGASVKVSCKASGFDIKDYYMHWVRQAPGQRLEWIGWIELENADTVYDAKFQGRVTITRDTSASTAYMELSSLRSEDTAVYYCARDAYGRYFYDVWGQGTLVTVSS
# T30 sequence (VL, as listed by the source limits assumed, chain 2 of 2): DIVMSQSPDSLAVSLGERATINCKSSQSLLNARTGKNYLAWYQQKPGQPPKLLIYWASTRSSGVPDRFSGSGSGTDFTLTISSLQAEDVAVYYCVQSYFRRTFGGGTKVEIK
# Summary of the method: as §2
# [31] = biological target: T31, ADI-26909; assay: SPR Carterra, yeast anti-ID
# T31 construct: anti-CD3 antibody made in CHO cells, captured by anti-human Fc
# Summary of the method: as §2
# [32] = biological target: T32, CTL-62223; assay: SPR Carterra, yeast anti-ID
# T32 construct: also called mosunetuzumab
# Summary of the method: as §2
# [33] = biological target: T33, ADI-26915; assay: SPR Carterra, yeast anti-ID
# T33 construct: anti-CD3 antibody made in CHO cells, captured by anti-human Fc
# Summary of the method: as §2
# [34] = biological target: T34, CTL-62227; assay: SPR Carterra, yeast anti-ID
# T34 construct: also called odronextamab
# Summary of the method: as §2
# [35] = biological target: T35, CTL-62228; assay: SPR Carterra, yeast anti-ID
# T35 construct: also called glofitamab
# Summary of the method: as §2
# [36] = biological target: T36, CTL-62240; assay: SPR Carterra, yeast anti-ID
# T36 construct: also called ONO-4685
# Summary of the method: as §2
# [37] = biological target: T37, ADI-67445; assay: SPR Carterra, yeast anti-ID
# T37 construct: anti-CD3 antibody made in CHO cells, captured by anti-human Fc
# Summary of the method: as §2
# [38] = biological target: T38, ADI-50024; assay: SPR Carterra, yeast anti-ID
# T38 construct: anti-CD3 antibody made in CHO cells, captured by anti-human Fc
# T38 sequence (VH, as listed by the source limits assumed, chain 1 of 2): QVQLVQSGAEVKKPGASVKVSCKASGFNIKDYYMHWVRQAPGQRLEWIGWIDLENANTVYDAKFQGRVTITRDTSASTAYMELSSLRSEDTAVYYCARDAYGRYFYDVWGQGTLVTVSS
# Summary of the method: as §2
binder,measurement,setting,value
"ADI-34143 (antibody, V domains shown, anti-ID IgG) VH: EVQLLESGGGLVQPGGSLRLSCAASGFTFSSYAMSWVRQAPGKGLEWVSTISGSGGSTYYADSVKGRFTISRDNSKNTLYLQMNSLRAEDTAVYYCARLGGRRGSGSSYYYYYGMDVWGQGTTVTVSS VL: not shown",Kd,[1],18.2 nM
same,binding result,[2],binds
same,Kd,[3],20 nM
same,Kd,[4],24 nM
same,binding result,[5],binds
same,binding result,[6],binds
same,binding result,[7],binds
same,Kd,[8],43 nM
same,binding result,[9],binds
same,binding result,[10],binds
same,binding result,[11],binds
same,Kd,[12],36 nM
same,Kd,[13],35 nM
same,Kd,[14],20 nM
same,binding result,[15],binds
same,Kd,[16],11 nM
same,binding result,[17],binds
same,binding result,[18],binds
same,Kd,[19],33 nM
same,Kd,[20],23 nM
same,binding result,[21],binds
same,Kd,[22],130 nM
same,Kd,[23],6.6 nM
same,Kd,[24],13 nM
same,Kd,[25],2.98 nM
same,binding result,[26],no binding (tested: up to 200 nM)
same,binding result,[27],no binding (tested: up to 200 nM)
same,binding result,[28],no binding (tested: up to 200 nM)
same,binding result,[29],no binding (tested: up to 200 nM)
same,binding result,[30],no binding (tested: up to 200 nM)
same,binding result,[31],no binding (tested: up to 200 nM)
same,binding result,[32],no binding (tested: up to 200 nM)
same,binding result,[33],no binding (tested: up to 200 nM)
same,binding result,[34],no binding (tested: up to 200 nM)
same,binding result,[35],no binding (tested: up to 200 nM)
same,binding result,[36],no binding (tested: up to 200 nM)
same,binding result,[37],no binding (tested: up to 200 nM)
same,binding result,[38],no binding (tested: up to 200 nM)
